We go through six molecules from US20060030015A1 (published 2006).

One experiment addresses HSA (human, UniProt P02768 25-609). The experiment in a line: ELISA (immunoassay of Experiment 3-3), absorbance at 405 nm.
The target of another experiment is T1, OVA (UniProt P01012 2-386).
T1 sequence (looked up): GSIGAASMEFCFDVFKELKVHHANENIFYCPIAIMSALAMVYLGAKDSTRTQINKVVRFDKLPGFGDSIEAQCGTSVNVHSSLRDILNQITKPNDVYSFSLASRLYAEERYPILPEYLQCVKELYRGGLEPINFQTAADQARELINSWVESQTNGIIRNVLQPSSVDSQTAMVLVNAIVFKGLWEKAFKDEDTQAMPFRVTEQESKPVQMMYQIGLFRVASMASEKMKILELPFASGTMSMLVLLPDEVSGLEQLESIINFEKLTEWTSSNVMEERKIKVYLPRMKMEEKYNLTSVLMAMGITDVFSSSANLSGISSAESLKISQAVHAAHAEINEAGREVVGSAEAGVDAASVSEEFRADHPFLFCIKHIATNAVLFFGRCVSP
The experiment is described as above.

Experiment [1] addresses CDR1 antigen peptide (…), synthetic peptide of CDR 1 of the light chain of antibody 41S-2. The experiment in a line: cell-based or functional assay.
For experiment [2], the target named is ECL2B peptide (…), partial peptide of CCR-5 (human). Kind of experiment: cell-based or functional assay.
Chain of ECL2B peptide (…), partial peptide of CCR-5 (human) (peptide, as listed by the source): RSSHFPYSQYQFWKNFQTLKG
Experiment [3] concerns the target ECL2B peptide (sequence No.38) as named in Experiment 3-9 (human). Kind of experiment: cell-based or functional assay.
For experiment [4], the target named is peptide TP41-1 of a retention region of gp41 (HIV-1) (…) (HIV-1). The experiment in a line: cell-based or functional assay.

Where a chain is given by its changes, count along the chain named.

Chain of HSA (P02768 25-609): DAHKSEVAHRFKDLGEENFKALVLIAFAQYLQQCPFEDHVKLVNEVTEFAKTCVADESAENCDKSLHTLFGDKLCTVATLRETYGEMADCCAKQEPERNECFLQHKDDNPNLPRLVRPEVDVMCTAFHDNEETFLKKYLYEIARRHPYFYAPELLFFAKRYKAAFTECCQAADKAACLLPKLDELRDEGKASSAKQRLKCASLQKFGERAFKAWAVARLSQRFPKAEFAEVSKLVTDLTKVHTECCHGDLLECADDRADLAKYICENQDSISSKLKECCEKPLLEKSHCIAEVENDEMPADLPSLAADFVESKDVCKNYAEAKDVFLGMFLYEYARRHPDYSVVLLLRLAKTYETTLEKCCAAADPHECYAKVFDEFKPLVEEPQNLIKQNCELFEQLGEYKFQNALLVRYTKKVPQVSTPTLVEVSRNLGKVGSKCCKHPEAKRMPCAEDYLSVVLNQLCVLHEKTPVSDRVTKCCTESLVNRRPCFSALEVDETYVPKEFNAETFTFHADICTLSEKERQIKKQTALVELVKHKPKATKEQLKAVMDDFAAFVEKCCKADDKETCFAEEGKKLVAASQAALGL
Description for HSA: (§1) The blocking was applied with 2% gelatin at room temperature.
Description for OVA: as §1

B1: monoclonal antibody ECL2B-2 (antibody, V domains shown)
VH: DVKLVESGGGLVKPGGSLKLSCAASGFTFSRYTMSWVRQTPEKRLEWVATISSGGSYTYYPDSVKGRFTISRDIAKNTLYLQMSSLKSEDTALYYCTREGGYGAFASWGQGTLVTVS
VL: DVLMTQTPLSLPVSLGDQASISCRSSQSIVHSNGNTYLEWYLQKPGQSPKLLIYKVSNRFSGVPDRFSGSGSGTDFTLKINRVAAEDLGVYYCFQGSHVPWTFGGGTKLEIKR
notes: also called intact monoclonal antibody ECL2B-2
For the molecule B1, the binding result in the experiment with HSA and with OVA was “no binding” each time.

B2: light chain of i41SL1-2 antibody (i41SL1-2-L) (protein)
VL: DIVMTQTQLTLTINIGQPASISCKSSQSLLDSDGKTYLNWLFQRPGQSPKRLIYLVSKLDSGVPDRFTGSGSGTDFTLKISRVEAEDLGVYYCWQGTHFPLTFGAGTKLELRRA
Consider B2, for which, in experiment [1], the Km amounted to 2 µM, the catalytic constant (kcat) was 0.613 min⁻¹ and the kcat/Km came out at 310000 M⁻¹ min⁻¹.

B3: monoclonal antibody ECL2B-3 (antibody, V domains shown)
VH: QIQLVQSGPELKKPGETVKISCKASGYTFTNYGMNWVKQAPGKGLEWMGWINTYTGEPTYAGDFMGRSVFSLETSASTAYLQINNLENKDTATYICARSGSPYAMDYWGQGTSVTVS
VL: DIALTQSPASLAVSLGQRATISCKASQSVDYDGDSYMNWFQQKPGQPPKLLIYAASNLESGIPGRFSGSGSGTDFTLNIHPVEEEDIATYYCQQSYEDPFTFGSGTILDIKR
As to B3, the binding result with HSA and with OVA was “no binding” in each case.

B4: light chain of ECL2B-2 (ECL2B-2-L) (protein)
VL: DVLMTQTPLSLPVSLGDQASISCRSSQSIVHSNGNTYLEWYLQKPGQSPKLLIYKVSNRFSGVPDRFSGSGSGTDFTLKINRVAAEDLGVYYCFQGSHVPWTFGGGTKLEIKRA
On to B4, for which, in experiment [2], the time until the ECL2B peptide disappeared (RP-HPLC) stood at 90 h.

B5: light chain of ECL2B-4 (ECL2B-4-L) (protein)
VL: B4 VL with L51F, N81S, A84E, A85T
For the molecule B5, in experiment [3], the Michaelis constant (Km) stood at 35 µM, the Vmax turned out to be 0.31 µM/min, the catalytic constant (kcat) was 0.72 min⁻¹ and the kcat/Km stood at 22000 M⁻¹ min⁻¹. In experiment [4], the Km is 12.5 µM, the maximal velocity (Vmax) came out at 0.0624 µM/min, the kcat was found to be 0.16 min⁻¹ and the kcat/Km was 12500 M⁻¹ min⁻¹.

B6: heavy chain of i41SL1-2 antibody (i41SL1-2-H) (protein)
VH: QVQLQHSGAELVRPGSSVKVSCKALGYTSTDYEIHWVKQTPVRGLEWIGAIHPGSDVIVYNQKFKGTATLTADKSSSTAYMELRSLTSEDSAVYYCTREGGSVDYVWGQGTLVTVSA
Take B6: in experiment [1], the Km is 13 µM, the kcat is 0.618 min⁻¹ and the specificity constant (kcat/Km) was 48700 M⁻¹ min⁻¹.
